B1: INTS4 (parent)
chain: IRLVDDAFGKICHMVSDGSWVVRV
B2: CLPTM1 (parent)
chain: MNLHVYISEHEHFTDFNATSALFW

Variants of: B1
Experiment: protein stability index of a GFP-peptide fusion (GPS, HEK-293T) (PSI 1-6); higher = more stable
Conditions: c terminus: a fixed tail appended
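Note: lentivirally expressed fusions sorted by FACS into six bins by GFP to DsRed ratio, PSI derived from sequencing read proportions per bin multiplied by bin number.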

Compared with IRLVDDAFGKICHMVSDGSFVVRV [W20F], IRLVDDAFGKICHMVSDGSGVVRV [W20G] is lower in protein stability index: 2.47 for the first, 1.7 for the second.

Compared with IRLVDDAFGKICHMVSDGSEVVRV [W20E], IRLVDDAFGKICHMVSDGSHVVRV [W20H] is higher in protein stability index: 1.64 for the first, 3.71 for the second.

Going from IRLVDDAFGKICHMVSDGSRVVRV [W20R] to IRLVDDAFGKICHMVSDGSLVVRV [W20L], the protein stability index rises from 2.79 to 2.83.

Compared with IRLVDDAFGKICHMVSDGSQVVRV [W20Q], IRLVDDAFGKICHMVSDGSKVVRV [W20K] is lower in protein stability index: 3.26 for the first, 1.36 for the second.

Going from IRLVDDAFGKICHMVSDGSDVVRV [W20D] to IRLVDDAFGKICHMVSDGSYVVRV [W20Y], the protein stability index rises from 1.61 to 2.87.

Compared with IRLVDDAFGKICHMVSDGSIVVRV [W20I], IRLVDDAFGKICHMVSDGSAVVRV [W20A] is higher in protein stability index: 2.89 for the first, 3.43 for the second.

Compared with IRLVDDAFGKICHMVSDGSVVVRV [W20V], IRLVDDAFGKICHMVSDGDWVVRV [S19D] is higher in protein stability index: 3.08 for the first, 3.41 for the second.

First: IRLVDDAFGKICHMVSDGGWVVRV [S19G]
Second: IRLVDDAFGKICHMVSDGWWVVRV [S19W]
The protein stability index of the first is higher: 1.58 for the first, 1.01 for the second.

First: IRLVDDAFGKICHMVSDGFWVVRV [S19F]
Second: IRLVDDAFGKICHMVSDGIWVVRV [S19I]
The protein stability index of the first is lower: 2.73 for the first, 3.87 for the second.

First: IRLVDDAFGKICHMVSDGMWVVRV [S19M]
Second: IRLVDDAFGKICHMVSDGPWVVRV [S19P]
The protein stability index of the first is lower: 2.38 for the first, 3.43 for the second.

First: IRLVDDAFGKICHMVSDGQWVVRV [S19Q]
Second: IRLVDDAFGKICHMVSDGVWVVRV [S19V]
The protein stability index of the first is lower: 3.45 for the first, 3.96 for the second.

First: IRLVDDAFGKICHMVSDGKWVVRV [S19K]
Second: IRLVDDAFGKICHMVSDGCWVVRV [S19C]
The protein stability index of the first is higher: 2.25 for the first, 1.73 for the second.

First: IRLVDDAFGKICHMVSDGHWVVRV [S19H]
Second: IRLVDDAFGKICHMVSDGLWVVRV [S19L]
The protein stability index of the first is higher: 3.8 for the first, 2.95 for the second.

Going from IRLVDDAFGKICHMVSDGTWVVRV [S19T] to IRLVDDAFGKICHMVSDGAWVVRV [S19A], the protein stability index falls from 3.28 to 2.89.

First: IRLVDDAFGKICHMVSDDSWVVRV [G18D]
Second: IRLVDDAFGKICHMVSDKSWVVRV [G18K]
The protein stability index of the first is higher: 3.61 for the first, 3.25 for the second.

First: IRLVDDAFGKICHMVSDFSWVVRV [G18F]
Second: IRLVDDAFGKICHMVSDTSWVVRV [G18T]
The protein stability index of the first is higher: 2.29 for the first, 1.95 for the second.

First: IRLVDDAFGKICHMVSDMSWVVRV [G18M]
Second: IRLVDDAFGKICHMVSDRSWVVRV [G18R]
The protein stability index of the first is lower: 1.8 for the first, 2.9 for the second.

First: IRLVDDAFGKICHMVSDYSWVVRV [G18Y]
Second: IRLVDDAFGKICHMVSDPSWVVRV [G18P]
The protein stability index of the first is lower: 1.62 for the first, 4.4 for the second.

Compared with IRLVDDAFGKICHMVSDISWVVRV [G18I], IRLVDDAFGKICHMVSDSSWVVRV [G18S] is lower in protein stability index: 3.15 for the first, 1.88 for the second.

Compared with IRLVDDAFGKICHMVSDNSWVVRV [G18N], IRLVDDAFGKICHMVSDESWVVRV [G18E] is higher in protein stability index: 2.01 for the first, 2.57 for the second.

Compared with IRLVDDAFGKICHMVSWGSWVVRV [D17W], IRLVDDAFGKICHMVSDGSWVVNV [R23N] is lower in protein stability index: 2.22 for the first, 2.02 for the second.

First: IRLVDDAFGKICHMVSDGSWVVHV [R23H]
Second: IRLVDDAFGKICHMVSDGSWVVDV [R23D]
The protein stability index of the first is higher: 2.94 for the first, 2.15 for the second.

First: IRLVDDAFGKICHMVSDGSWVVEV [R23E]
Second: IRLVDDAFGKICHMVSDGSWVVLV [R23L]
The protein stability index of the first is lower: 2.13 for the first, 4.2 for the second.

Going from IRLVDDAFGKICHMVSDGSWVVMV [R23M] to IRLVDDAFGKICHMVSDGSWVVTV [R23T], the protein stability index falls from 3.4 to 1.88.

Going from IRLVDDAFGKICHMVSDGSWVVCV [R23C] to IRLVDDAFGKICHMVSDGSWVVIV [R23I], the protein stability index falls from 3.87 to 3.28.

Compared with IRLVDDAFGKICHMVSDGSWVVGV [R23G], IRLVDDAFGKICHMVSDGSWVVSV [R23S] is higher in protein stability index: 2.32 for the first, 2.39 for the second.

Going from IRLVDDAFGKICHMVSDGSWVVAV [R23A] to IRLVDDAFGKICHMVSDGSWVVFV [R23F], the protein stability index falls from 4.14 to 3.

First: IRLVDDAFGKICHMVSDGSWVTRV [V22T]
Second: IRLVDDAFGKICHMVSDGSWVRRV [V22R]
The protein stability index of the first is higher: 4.7 for the first, 3.28 for the second.

Going from IRLVDDAFGKICHMVSDGSWVDRV [V22D] to IRLVDDAFGKICHMVSDGSWVERV [V22E], the protein stability index falls from 3.6 to 2.56.

First: IRLVDDAFGKICHMVSDGSWVKRV [V22K]
Second: IRLVDDAFGKICHMVSDGSWVFRV [V22F]
The protein stability index of the first is lower: 3.02 for the first, 3.53 for the second.

First: IRLVDDAFGKICHMVSDGSWVYRV [V22Y]
Second: IRLVDDAFGKICHMVSDGSWVLRV [V22L]
The protein stability index of the first is higher: 4.15 for the first, 2.82 for the second.

Compared with IRLVDDAFGKICHMVSDGSWVHRV [V22H], IRLVDDAFGKICHMVSDGSWVIRV [V22I] is higher in protein stability index: 2.78 for the first, 3.27 for the second.

Compared with IRLVDDAFGKICHMVSDGSWVCRV [V22C], IRLVDDAFGKICHMVSDGSWVWRV [V22W] is lower in protein stability index: 3.31 for the first, 2.35 for the second.

Going from IRLVDDAFGKICHMVSDGSWVVRF [V24F] to IRLVDDAFGKICHMVSDGSWVVRC [V24C], the protein stability index falls from 3.03 to 2.68.

Going from IRLVDDAFGKICHMVSDGSWVVRP [V24P] to IRLVDDAFGKICHMVSDGSWVVRW [V24W], the protein stability index falls from 3.21 to 1.57.

Going from IRLVDDAFGKICHMVSDGSWVVRH [V24H] to IRLVDDAFGKICHMVSDGSWVVRR [V24R], the protein stability index rises from 2.79 to 3.03.

First: IRLVDDAFGKICHMVSDGSWVVRD [V24D]
Second: IRLVDDAFGKICHMVSDGSWVVRM [V24M]
The protein stability index of the first is higher: 1.47 for the first, 1.46 for the second.

First: IRLVDDAFGKICHMVSDGSWVVRT [V24T]
Second: IRLVDDAFGKICHMVSDGSWVVRI [V24I]
The protein stability index of the first is higher: 4 for the first, 3.12 for the second.

Compared with IRLVDDAFGKICHMVSDGSWVVRN [V24N], IRLVDDAFGKICHMVSDGSWVVRY [V24Y] is higher in protein stability index: 1.42 for the first, 3.37 for the second.

Going from IRLVDDAFGKICHMVSDGSWVVRQ [V24Q] to IRLVDDAFGKICHMVSDGSWVVRK [V24K], the protein stability index falls from 2.04 to 1.58.

First: IRLVDDAFGKICHMVSDGSWVVRS [V24S]
Second: IRLVDDAFGKICHMVSDGSWFVRV [V21F]
The protein stability index of the first is lower: 2.31 for the first, 2.62 for the second.

First: IRLVDDAFGKICHMVSDGSWRVRV [V21R]
Second: IRLVDDAFGKICHMVSDGSWEVRV [V21E]
The protein stability index of the first is higher: 2.88 for the first, 2 for the second.

Going from IRLVDDAFGKICHMVSDGSWKVRV [V21K] to IRLVDDAFGKICHMVSDGSWYVRV [V21Y], the protein stability index rises from 3.29 to 4.71.

Compared with IRLVDDAFGKICHMVSDGSWTVRV [V21T], IRLVDDAFGKICHMVSDGSWHVRV [V21H] is higher in protein stability index: 2.18 for the first, 3.08 for the second.

First: IRLVDDAFGKICHMVSDGSWPVRV [V21P]
Second: IRLVDDAFGKICHMVSDGSWLVRV [V21L]
The protein stability index of the first is lower: 1.98 for the first, 2.25 for the second.

Going from IRLVDDAFGKICHMVSDGSWGVRV [V21G] to IRLVDDAFGKICHMVSDGSWCVRV [V21C], the protein stability index rises from 1.89 to 3.07.

Variants of: B2
Experiment: as above
Conditions: c terminus: a fixed tail appended

Compared with ENLHVYISEHEHFTDFNATSALFW [M1E], DNLHVYISEHEHFTDFNATSALFW [M1D] is higher in protein stability index: 1.33 for the first, 1.72 for the second.

— the supplement of paper PMC10567573
